Measured values taken from patent publication US20240252614A1.

How the values were obtained:
Conditions in all cases: remark: other sources report otherwise
hMPV080 (hMPV A), Q6WB98 [1] = experiment: BLI, no stress
[2] = target: hMPV A F WT Control (hMPV A), Q6WB98; experiment: BLI, no stress
hMPV054 (hMPV A), Q6WB98 = experiment: BLI, no stress
hMPV071 (hMPV A), Q6WB98 = experiment: BLI, no stress
hMPV043 (hMPV A), Q6WB98 = experiment: BLI, no stress
hMPV044 (hMPV A), Q6WB98 = experiment: BLI, no stress
hMPV053 (hMPV A), Q6WB98 = experiment: BLI, no stress
hMPV077 (hMPV A), Q6WB98 = experiment: BLI, no stress
hMPV055 (hMPV A), Q6WB98 = experiment: BLI, no stress
hMPV050 (hMPV A), Q6WB98 = experiment: BLI, no stress
hMPV068 (hMPV A), Q6WB98 = experiment: BLI, no stress
hMPV048 (hMPV A), Q6WB98 = experiment: BLI, no stress
hMPV047 (hMPV A), Q6WB98 = experiment: BLI, no stress
hMPV059 (hMPV A), Q6WB98 = experiment: BLI, no stress
hMPV062 (hMPV A), Q6WB98 = experiment: BLI, no stress
hMPV066 (hMPV A), Q6WB98 = experiment: BLI, no stress
hMPV058 (hMPV A), Q6WB98 = experiment: BLI, no stress
hMPV049 (hMPV A), Q6WB98 = experiment: BLI, no stress
[3] = target: hMPV A F WT Control (hMPV A), Q6WB98; experiment: BLI, no stress; remark: listed apart in the source
hMPV060 (hMPV A), Q6WB98 = experiment: BLI, no stress
hMPV067 (hMPV A), Q6WB98 = experiment: BLI, no stress
hMPV061 (hMPV A), Q6WB98 = experiment: BLI, no stress
hMPV082 (hMPV A), Q6WB98 = experiment: BLI, 53C stress
hMPV085 (hMPV A), Q6WB98 = experiment: BLI, 53C stress
hMPV083 (hMPV A), Q6WB98 = experiment: BLI, 53C stress
hMPV086 (hMPV A), Q6WB98 = experiment: BLI, 53C stress
hMPV090 (hMPV A), Q6WB98 = experiment: BLI, 53C stress
hMPV088 (hMPV A), Q6WB98 = experiment: BLI, 53C stress
hMPV078 (hMPV A), Q6WB98 = experiment: BLI, 53C stress
hMPV089 (hMPV A), Q6WB98 = experiment: BLI, 53C stress
hMPV087 (hMPV A), Q6WB98 = experiment: BLI, 53C stress
hMPV079 (hMPV A), Q6WB98 = experiment: BLI, 53C stress
hMPV084 (hMPV A), Q6WB98 = experiment: BLI, 53C stress
hMPV081 (hMPV A), Q6WB98 = experiment: BLI, 53C stress
[4] = target: hMPV A F WT Control (hMPV A), Q6WB98; experiment: BLI, 53C stress
hMPV097 (hMPV A), Q6WB98 = experiment: BLI, 53C stress
hMPV080 (hMPV A), Q6WB98 [5] = experiment: BLI, 53C stress
[6] = target: hMPV A F WT Control (hMPV A), Q6WB98; experiment: BLI, 53C stress; remark: listed apart in the source

B1: MPE8 mAb (antibody, V domains shown)
VH: EVQLVESGGGLVKPGGSLRLSCAASGFTFSSYSMNWVRQAPGKGLEWVSSISASSSYSDYADSAKGRFTISRDNAKTSLFLQMNSLRAEDTAIYFCARARATGYSSITPYFDIWGQGTLVTVSS
VL: QSVVTQTPSVSGAPGQRVTISCTGSSSNIGAGYDVHWYQQLPGTAPKLLIYDNNNRPSGVPDRFSASKSGTSASLAITGLQAEDEADYYCQSYDRNLSGVFGTGTKVTVL
- Response Shift (hMPV080 (hMPV A), Q6WB98 [1]): 0.787 nm
- Response Shift [2]: 0.102 nm
- Response Shift (hMPV054 (hMPV A), Q6WB98): 0.73 nm
- Response Shift (hMPV071 (hMPV A), Q6WB98): 0.804 nm
- Response Shift (hMPV043 (hMPV A), Q6WB98): 0.558 nm
- Response Shift (hMPV044 (hMPV A), Q6WB98): 0.72 nm
- Response Shift (hMPV053 (hMPV A), Q6WB98): 0.624 nm
- Response Shift (hMPV077 (hMPV A), Q6WB98): 0.706 nm
- Response Shift (hMPV055 (hMPV A), Q6WB98): 0.581 nm
- Response Shift (hMPV050 (hMPV A), Q6WB98): 0.641 nm
- Response Shift (hMPV068 (hMPV A), Q6WB98): 0.738 nm
- Response Shift (hMPV048 (hMPV A), Q6WB98): 0.596 nm
- Response Shift (hMPV047 (hMPV A), Q6WB98): 0.259 nm
- Response Shift (hMPV059 (hMPV A), Q6WB98): 0.666 nm
- Response Shift (hMPV062 (hMPV A), Q6WB98): 0.713 nm
- Response Shift (hMPV066 (hMPV A), Q6WB98): 0.779 nm
- Response Shift (hMPV058 (hMPV A), Q6WB98): 0.684 nm
- Response Shift (hMPV049 (hMPV A), Q6WB98): 0.672 nm
- Response Shift [3]: 0.69 nm
- Response Shift (hMPV060 (hMPV A), Q6WB98): 0.84 nm
- Response Shift (hMPV067 (hMPV A), Q6WB98): 0.744 nm
- Response Shift (hMPV061 (hMPV A), Q6WB98): 0.813 nm
- Response Shift (hMPV082 (hMPV A), Q6WB98): 0.985 nm
- Response Shift (hMPV085 (hMPV A), Q6WB98): 0.889 nm
- Response Shift (hMPV083 (hMPV A), Q6WB98): 0.796 nm
- Response Shift (hMPV086 (hMPV A), Q6WB98): 0.86 nm
- Response Shift (hMPV090 (hMPV A), Q6WB98): 0.909 nm
- Response Shift (hMPV088 (hMPV A), Q6WB98): 0.937 nm
- Response Shift (hMPV078 (hMPV A), Q6WB98): 0.939 nm
- Response Shift (hMPV089 (hMPV A), Q6WB98): 0.928 nm
- Response Shift (hMPV087 (hMPV A), Q6WB98): 0.903 nm
- Response Shift (hMPV079 (hMPV A), Q6WB98): 0.861 nm
- Response Shift (hMPV084 (hMPV A), Q6WB98): 0.908 nm
- Response Shift (hMPV081 (hMPV A), Q6WB98): 0.915 nm
- Response Shift [4]: 0.096 nm
- Response Shift (hMPV097 (hMPV A), Q6WB98): 0.935 nm
- Response Shift (hMPV080 (hMPV A), Q6WB98 [5]): 0.798 nm
- Response Shift [6]: 0.037 nm
